{"source": "patent US20200308290A1", "about": "(AbbVie / Abbott, published 2020)", "binders": {"B1": {"name": "NuhuTacVH with daclizumabVL (antibody, V domains shown)", "VH": "EVQLVQSGAEVKKPGASVKVSCKASGYTFTSYRMHWVRQAPGQGLEWIGYINPSTGYTEYNQKFKDKATMTADKSISTAYMELSSLRSEDTAVYYCARGGGVFDYWGQGTLVTVSS", "VL": "DIQMTQSPSTLSASVGDRVTITCSASSSISYMHWYQQKPGKAPKLLIYTTSNLASGVPARFSGSGSGTEFTLTISSLQPDDFATYYCHQRSTYPLTFGQGTKVEVK", "notes": "combination antibody"}, "B2": {"name": "NuhuTac (antibody, V domains shown)", "VH": "B1 VH", "VL": "EIVLTQSPATLSLSPGERATLTCSASSSISYMHWFQQKPGQAPRLLIYTTSNLASGIPARFSGSGSGTDYTLTISSLEPEDFAVYYCHQRSTYPLTFGQGTKVEIK", "notes": "rehumanization of mouse anti-Tac on frameworks R3.5H5G (VH) and ka3d1 (VL); also called rehumanized anti-Tac; rehumanized antibody"}, "B3": {"name": "Variant C38 (antibody, name in Kabat numbering, V domains shown)", "VH": "B1 VH with E1Q, A16S, I48M, N52S, S54R, T55K, M70I, K74E, I76T, S77N", "VL": "B1 VL", "notes": "Isotype as printed: G2M3.QL"}, "B4": {"name": "RRGFE (antibody, IgG1, name in Kabat numbering, V domains shown)", "VH": "B1 VH with E1Q, A16S, N52R, S54R, T55G, Y57F, M70I, K74E, I76T, S77N", "VL": "B1 VL", "notes": "soluble IgG1 from the VH library; Kabat numbers; also called VH variant RRGFE"}, "B5": {"name": "Variant C11 (antibody, name in Kabat numbering, V domains shown)", "VH": "B1 VH with E1Q, A16S, N52S, S54K, T55R, E59Q, M70I, K74E, I76T, S77N", "VL": "B1 VL", "notes": "Isotype as printed: G1 fa"}, "B6": {"name": "DAC I48L (antibody, IgG1, name in Kabat numbering, V domains shown)", "VH": "B1 VH with E1Q, A16S, I48L, M70I, K74E, I76T, S77N", "VL": "B1 VL", "notes": "E.HAT variant, IgG1/kappa"}, "B7": {"name": "Variant C35 (antibody, name in Kabat numbering, V domains shown)", "VH": "B1 VH with E1Q, A16S, I48M, N52K, T55R, M70I, K74E, I76T, S77N", "VL": "B1 VL with N52E", "notes": "Isotype as printed: G2M3.QL"}, "B8": {"name": "DAC I48V (antibody, IgG1, name in Kabat numbering, V domains shown)", "VH": "B1 VH with E1Q, A16S, I48V, M70I, K74E, I76T, S77N", "VL": "B1 VL", "notes": "E.HAT variant, IgG1/kappa"}, "B9": {"name": "daclizumab variant S78 (antibody, IgG1, name in Kabat numbering, V domains shown)", "VH": "B1 VH with E1Q, A16S, I48V, M70I, K74E, I76T, S77N", "VL": "B1 VL", "notes": "IgG1; Kabat positions; also called I48V; DAC I48V"}, "B10": {"name": "Variant C12 (antibody, name in Kabat numbering, V domains shown)", "VH": "B1 VH with E1Q, A16S, N52S, S54R, T55R, E59Q, M70I, K74E, I76T, S77N", "VL": "B1 VL", "notes": "Isotype as printed: G1 fa"}, "B11": {"name": "daclizumab VH and NuhuTacVL (antibody, V domains shown)", "VH": "B1 VH with E1Q, A16S, M70I, K74E, I76T, S77N", "VL": "B2 VL", "notes": "combination antibody"}, "B12": {"name": "Variant C40 (antibody, name in Kabat numbering, V domains shown)", "VH": "B1 VH with E1Q, A16S, I48M, N52S, S54R, T55K, M70I, K74E, I76T, S77N", "VL": "B1 VL with N52E", "notes": "Isotype as printed: G2M3.QL"}}, "key": {"[1]": {"target": "T1, human CD25 (recombinant soluble) (human, UniProt P01589 22-240)", "T1 construct": "extracellular domain; bought protein; also called IL2-Rα; recombinant human IL2-Rα", "T1 sequence (looked up)": "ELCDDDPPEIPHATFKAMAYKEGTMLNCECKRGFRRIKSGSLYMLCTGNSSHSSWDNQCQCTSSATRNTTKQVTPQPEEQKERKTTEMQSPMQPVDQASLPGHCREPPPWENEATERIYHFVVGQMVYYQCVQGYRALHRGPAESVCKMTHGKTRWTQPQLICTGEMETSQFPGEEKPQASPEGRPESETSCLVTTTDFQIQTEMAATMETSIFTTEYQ", "experiment": "competition ELISA on plate-coated CD25: competitor antibody titrated against biotinylated daclizumab, OD415"}, "[2]": {"target": "T1, human CD25 (recombinant soluble)", "experiment": "competition ELISA on plate-coated CD25: competitor antibody titrated against biotinylated daclizumab, OD415", "remark": "listed apart in the source"}, "human CD25 on cells": {"target": "T2, human CD25 on cells (human, UniProt P01589 22-272)", "T2 sequence (looked up)": "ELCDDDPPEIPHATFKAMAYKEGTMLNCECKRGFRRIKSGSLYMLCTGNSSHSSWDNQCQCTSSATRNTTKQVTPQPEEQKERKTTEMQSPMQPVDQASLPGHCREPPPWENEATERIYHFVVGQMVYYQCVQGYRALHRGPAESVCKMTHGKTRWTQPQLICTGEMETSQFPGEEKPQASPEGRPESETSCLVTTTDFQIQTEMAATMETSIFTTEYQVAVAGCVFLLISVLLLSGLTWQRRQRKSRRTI", "experiment": "cell-based or functional assay"}, "human CD25 [3]": {"target": "T3, human CD25 (human, UniProt P01589 22-213, limits assumed)", "T3 construct": "Recombinant soluble human CD25, coated on plates (ELISA) or injected over captured antibody (BIAcore); also called hCD25; IL2-R alpha", "T3 sequence (looked up)": "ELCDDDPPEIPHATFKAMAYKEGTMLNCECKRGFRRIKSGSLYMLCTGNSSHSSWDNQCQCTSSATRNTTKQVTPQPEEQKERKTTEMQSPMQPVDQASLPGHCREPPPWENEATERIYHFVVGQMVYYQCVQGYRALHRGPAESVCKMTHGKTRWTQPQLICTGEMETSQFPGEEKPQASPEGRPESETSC", "experiment": "SPR (BIAcore)"}, "human CD25 [4]": {"target": "T3, human CD25", "experiment": "competition ELISA vs biotinylated daclizumab, fold over wild type"}, "cynomolgous monkey CD25": {"target": "T4, cynomolgous monkey CD25 (cynomolgous monkey)", "T4 construct": "also called cmCD25; cm", "experiment": "SPR (BIAcore), cynomolgous CD25"}, "[5]": {"target": "T1, human CD25 (recombinant soluble)", "experiment": "competitive ELISA with biotinylated daclizumab on CD25", "procedure": "Wells of 96-well ELISA plates (Nunc-Immuno MaxiSorp plates, Nalge Nunc, Rochester, N.Y.) were coated with 100 μL of 0.2 μg/mL CD25 (Pepro Tech Inc., Rocky Hill, N.J.) in 0.2 M sodium carbonate-bicarbonate buffer (pH 9.4, Pierce, Rockford, Ill.) overnight at 4° C. After washing with Wash Buffer, wells were blocked with 200 μL of Superblock Blocking Buffer (Pierce, Rockford, Ill.) for 30 min and then washed. […] The plate was then washed with washing buffer three times. After washing, 100 μL of 1 μg/mL HRP-conjugated Streptavidin (Pierce) diluted in ELISA buffer was added to each well. After 30 minutes of incubation at room temperature, plates were washed and bound antibodies were detected by addition of ABTS substrate (Kirkegaard & Perry Laboratories, Gaithersburg, Md.). […] PRISM (GraphPad, San Diego) and reported as IC₅₀ wild type/IC₅₀ mutant (fold improvement over wild type control)."}, "human CD25 [6]": {"target": "T3, human CD25", "experiment": "SPR (BIAcore)", "remark": "listed apart in the source"}, "human CD25 [7]": {"target": "T3, human CD25", "experiment": "competition ELISA vs biotinylated daclizumab, fold over wild type", "remark": "listed apart in the source"}, "[8]": {"target": "T5, recombinant human CD25 (IL2-Rα) (human, UniProt P01589 22-213, limits assumed)", "T5 construct": "Bought protein; also called recombinant human IL2-Rα; recombinant soluble human CD25", "T5 sequence (looked up)": "T3 sequence (looked up)", "experiment": "direct-binding ELISA on plate-coated recombinant human IL2-Rα; EC50 benchmarked to DAC-HYP", "procedure": "MaxiSorp ELISA plates (Nunc Nalge International) were coated overnight at 4° C. with 100 μl/well of a 50 ng/ml solution of recombinant human IL2-Rα (R&D Systems or PeproTech, Inc., Rocky Hill, N.J.) in DPBS (Invitrogen Corporation), washed with Wash Buffer (PBS containing 0.1% Tween 20), and blocked for 30 min at room temperature with 200 μl/well of SuperBlock Blocking Buffer in TBS (Pierce Chemical Company). After washing with Wash Buffer, test antibodies (starting at 4 μg/ml and serially diluted 3-fold) in 100 μl/well of ELISA buffer (PBS containing 1% BSA and 0.1% Tween 20) were added in duplicate. After incubating the plates for 1 hr at room temperature, and washing with Wash Buffer, bound antibodies were detected using 100 μl/well of a 1:20,000 dilution of HRP-conjugated goat anti-human IgG (Southern Biotechnology Associates, Inc.) in ELISA buffer. After incubating for 1 hr at room temperature, and washing with Wash Buffer, color development was performed by adding 150 μl/well of TMB Peroxidase Substrate/Peroxidase Solution B (KPL, Inc.). After incubating for 8 min at room temperature, color development was stopped by adding 50 μl/well of 2 N sulfuric acid. Absorbance was read at 450 nm."}, "[9]": {"target": "T5, recombinant human CD25 (IL2-Rα)", "experiment": "SPR (BIAcore), antibody captured by anti-human Fc, soluble human CD25 as analyte, n=3", "procedure": "For this capture approach, 30 μg/ml of GAHFc was immobilized to achieve a high response unit (20,000 RU) on each flow cell on the Research-grade CMS sensor chip using the BIAcore amine coupling reagents (N-ethyl-N′-dimethylamino-propylcarbodiimide, EDC; N-hydroxysuccinimide, NHS; and ethanolamine HCl, pH 8.5). […] A 3 min association phase of CD25 was followed by a 15 min injection of HBS-P running buffer (10 mM HEPES, 150 mM sodium chloride, 0.005% P-20 surfactant, pH 7.4) to monitor dissociation for each binding cycle, with a different CD25 concentration per cycle. The surface was regenerated with 20 mM HCl at 100 μl/min flow rate at the end of each cycle. […] Double referencing was applied in each analysis to eliminate background responses from reference surface and buffer only control (0 nM). […] Each set of experiments was performed three times to assess the standard deviation of the data.\nModified antibody proteins were tested for binding affinity using a surface plasmon resonance assay format in a BIAcore device. […] Recombinant soluble human CD25 was flowed over the sensor chip and changes in mass were detected."}, "[10]": {"target": "T5, recombinant human CD25 (IL2-Rα)", "experiment": "SPR (BIAcore), affinity benchmarked to DAC-HYP, n=3", "procedure": "Double referencing was applied in each analysis to eliminate background responses from reference surface and buffer only control (0 nM). […] Each set of experiments was performed three times to assess the standard deviation of the data.\nModified antibody proteins were tested for binding affinity using a surface plasmon resonance assay format in a BIAcore device. […] Recombinant soluble human CD25 was flowed over the sensor chip and changes in mass were detected. The data was interpreted to yield kₐ, kd and KD values for all the proteins tested."}, "CD25 (recombinant) [11]": {"target": "T6, CD25 (recombinant) (human, UniProt P01589 22-213, limits assumed)", "T6 construct": "bought protein; also called IL2-R alpha; IL2-Rα", "T6 sequence (looked up)": "T3 sequence (looked up)", "experiment": "ELISA, relative to wild type; * = similar to WT"}, "CD25 (recombinant) [12]": {"target": "T6, CD25 (recombinant)", "experiment": "SPR (BIAcore)"}}, "note": "Numbering of substitutions follows the chain as printed. In names and notes the source's numbering stands. Like-named read-outs stand apart in the source and are kept apart here."}
{"binder": "B1", "values": [{"measurement": "EC50", "setting": "[1]", "value": 0.47, "unit": "mg/L"}]}
{"binder": "B2", "values": [{"measurement": "EC50", "setting": "[1]", "value": 0.49, "unit": "mg/L"}, {"measurement": "EC50", "setting": "[2]", "value": 0.71, "unit": "mg/L"}]}
{"binder": "B3", "values": [{"measurement": "Kit225 (fold improvement in inhibition of IL2-induced Kit225 proliferation)", "setting": "human CD25 on cells", "value": 3.6, "unit": "fold"}, {"measurement": "PBMC (fold improvement in inhibition of IL2-induced PHA blast proliferation)", "setting": "human CD25 on cells", "value": 5.8, "unit": "fold"}, {"measurement": "Kd", "setting": "human CD25 [3]", "value": 0.0095, "unit": "nM"}, {"measurement": "ELISA fold improvement", "setting": "human CD25 [4]", "value": 8.2, "unit": "fold"}, {"measurement": "Kd", "setting": "cynomolgous monkey CD25", "value": 0.1, "unit": "nM"}]}
{"binder": "B4", "values": [{"measurement": "fold affinity over the parental antibody", "setting": "[5]", "value": "~10", "unit": "fold"}]}
{"binder": "B5", "values": [{"measurement": "Kd", "setting": "human CD25 [6]", "value": 0.138, "unit": "nM"}, {"measurement": "ELISA fold improvement", "setting": "human CD25 [7]", "value": 3.47, "unit": "fold"}]}
{"binder": "B6", "values": [{"measurement": "Relative % Potency", "setting": "[8]", "value": 132, "unit": "%"}, {"measurement": "Kd", "setting": "[9]", "value": 0.597, "unit": "nM"}, {"measurement": "koff", "setting": "[9]", "value": 0.000222, "unit": "s⁻¹"}, {"measurement": "kon", "setting": "[9]", "value": 372000, "unit": "M⁻¹ s⁻¹"}, {"measurement": "Relative % KD", "setting": "[10]", "value": 83, "unit": "%"}]}
{"binder": "B7", "values": [{"measurement": "Kit225 (fold improvement in inhibition of IL2-induced Kit225 proliferation)", "setting": "human CD25 on cells", "value": 3, "unit": "fold"}, {"measurement": "PBMC (fold improvement in inhibition of IL2-induced PHA blast proliferation)", "setting": "human CD25 on cells", "value": 7.2, "unit": "fold"}, {"measurement": "Kd", "setting": "human CD25 [3]", "value": 0.034, "unit": "nM"}, {"measurement": "ELISA fold improvement", "setting": "human CD25 [4]", "value": 7, "unit": "fold"}, {"measurement": "Kd", "setting": "cynomolgous monkey CD25", "value": 0.188, "unit": "nM"}]}
{"binder": "B8", "values": [{"measurement": "Relative % Potency", "setting": "[8]", "value": 109, "unit": "%"}, {"measurement": "Kd", "setting": "[9]", "value": 0.493, "unit": "nM"}, {"measurement": "koff", "setting": "[9]", "value": 0.000183, "unit": "s⁻¹"}, {"measurement": "kon", "setting": "[9]", "value": 371000, "unit": "M⁻¹ s⁻¹"}, {"measurement": "Relative % KD", "setting": "[10]", "value": 100, "unit": "%"}]}
{"binder": "B9", "values": [{"measurement": "ELISA (wt = 1)", "setting": "CD25 (recombinant) [11]", "value": "1.1 fold (wt = 1)"}, {"measurement": "Fold improvement (KD)", "setting": "CD25 (recombinant) [12]", "value": 1, "unit": "fold over wild type"}, {"measurement": "Kd", "setting": "CD25 (recombinant) [12]", "value": 0.493, "unit": "nM"}, {"measurement": "koff", "setting": "CD25 (recombinant) [12]", "value": 0.000183, "unit": "s⁻¹"}, {"measurement": "kon", "setting": "CD25 (recombinant) [12]", "value": 371000, "unit": "M⁻¹ s⁻¹"}]}
{"binder": "B10", "values": [{"measurement": "Kd", "setting": "human CD25 [6]", "value": 0.155, "unit": "nM"}, {"measurement": "ELISA fold improvement", "setting": "human CD25 [7]", "value": 3.98, "unit": "fold"}]}
{"binder": "B11", "values": [{"measurement": "EC50", "setting": "[1]", "value": 1.18, "unit": "mg/L"}]}
{"binder": "B12", "values": [{"measurement": "PBMC (fold improvement in inhibition of IL2-induced PHA blast proliferation)", "setting": "human CD25 on cells", "value": 7.7, "unit": "fold"}, {"measurement": "Kd", "setting": "human CD25 [3]", "value": 0.012, "unit": "nM"}, {"measurement": "ELISA fold improvement", "setting": "human CD25 [4]", "value": 6.8, "unit": "fold"}, {"measurement": "Kd", "setting": "cynomolgous monkey CD25", "value": 0.074, "unit": "nM"}]}
